Laboratory results reported in article doi:10.1101/2020.12.19.423584 (bioRxiv, 2020).

Target: purified SARS-CoV-2 N protein produced in pupae (SARS-CoV-2, UniProt P0DTC9 1-419)
Experiment: ELISA

B1: Niemann-Pick type C1 (NPC1) receptor, endogenous human (natural protein)
chain: QSCVWYGECGIAYGDKRYNCEYSGPPKPLPKDGYDLVQELCPGFFFGNVSLCCDVRQLQTLKDNLQLPLQFLSRCPSCFYNLLNLFCELTCSPRQSQFLNVTATEDYVDPVTNQTKTNVKELQYYVGQSFANAMYNACRDVEAPSSNDKALGLLCGKDADACNATNWIEYMFNKDNGQAPFTITPVFSDFPVHGMEPMNNATKGCDESVDEVTAPCSCQDCSIVCGPKPQPPPPPAPWTILGLDAMYVIMWITYMAFLLVFFGAFFAVWCYRKRYFVSEYTPIDSNIAFSVNASDKGEASCCDPVSAAFEGCLRRLFTRWGSFCVRNPGCVIFFSLVFITACSSGLVFVRVTTNPVDLWSAPSSQARLEKEYFDQHFGPFFRTEQLIIRAPLTDKHIYQPYPSGADVPFGPPLDIQILHQVLDLQIAIENITASYDNETVTLQDICLAPLSPYNTNCTILSVLNYFQNSHSVLDHKKGDDFFVYADYHTHFLYCVRAPASLNDTSLLHDPCLGTFGGPVFPWLVLGGYDDQNYNNATALVITFPVNNYYNDTEKLQRAQAWEKEFINFVKNYKNPNLTISFTAERSIEDELNRESDSDVFTVVISYAIMFLYISLALGHMKSCRRLLVDSKVSLGIAGILIVLSSVACSLGVFSYIGLPLTLIVIEVIPFLVLAVGVDNIFILVQAYQRDERLQGETLDQQLGRVLGEVAPSMFLSSFSETVAFFLGALSVMPAVHTFSLFAGLAVFIDFLLQITCFVSLLGLDIKRQEKNRLDIFCCVRGAEDGTSVQASESCLFRFFKNSYSPLLLKDWMRPIVIAIFVGVLSFSIAVLNKVDIGLDQSLSMPDDSYMVDYFKSISQYLHAGPPVYFVLEEGHDYTSSKGQNMVCGGMGCNNDSLVQQIFNAAQLDNYTRIGFAPSSWIDDYFDWVKPQSSCCRVDNITDQFCNASVVDPACVRCRPLTPEGKQRPQGGDFMRFLPMFLSDNPNPKCGKGGHAAYSSAVNILLGHGTRVGATYFMTYHTVLQTSADFIDALKKARLIASNVTETMGINGSAYRVFPYSVFYVFYEQYLTIIDDTIFNLGVSLGAIFLVTMVLLGCELWSAVIMCATIAMVLVNMFGVMWLWGISLNAVSLVNLVMSCGISVEFCSHITRAFTVSMKGSRVERAEEALAHMGSSVFSGITLTKFGGIVVLAFAKSQIFQIFYFRMYLAMVLLGATHGLIFLPVLLSYIGPSVNKAKSCATEERYKGTERERLLNF
Question: Does B1 bind?
Answer: binds
